Measurements published in patent publication US20210047373A1, “BETA BARREL POLYPEPTIDES AND METHODS FOR THEIR USE” (UNIVERSITY OF WASHINGTON, priority 2018, published 2021).
“Also recorded” adds a separate entry of the source.

Columns and labels:
[1] = Size-exclusion chromatography (SEC, SEC-MALS); type: physicochemical; details: oligomeric state
Description: (§1) The sequences of these designs are not related to those of proteins with known structure (BLAST E-values ranged from 0.11 to 1.9 against the non-redundant protein database) and fold into the designed structure in silico (FIG. 2A). Synthetic genes encoding the designs were expressed in E. coli. […] The crystal structure of BB1 solved at 1.6 Å resolution was very close to the design model (within 1.4 Å RMSD over 99 residues of the 109 residues, FIG. 2F-G, deviations from the design are shown in FIG. 10) and had no close structural homolog in the PDB (highest TM-score <0.8). Essentially all of the key features of the design model are found in the crystal structure. The cross-section of the structure resembles the square cavity of the design model, which is not observed in any existing natural β-barrel crystal structures (FIG. 21), and is shaped by the designed glycine kinks. All 7 designed turns and β-bulges are correctly recapitulated in the crystal structure (FIG. 2H,J), along with the 3-10 helix and tryptophan corner (FIG. 2K).
(§2) Protein expression and purification. Genes encoding the nonfunctional β-barrel designs (41 from parametric design and 4 from fragment-base design) were synthesized and cloned into the pET-29 vector (GenScript, Inc). Plasmids were then transformed into BL21*(DE3) E. coli strain (NEB, Inc). […]

[2] = Circular dichroism, thermal and GuHCl denaturation; type: physicochemical
Experimental: Circular dichroism (CD). Purified protein samples were prepared at 0.5 mg/ml in 20 mM Tris buffer (150 mM NaCl, pH8.0) or PBS buffer (25 mM phosphate, 150 mM NaCl, pH7.4). Wavelength scans from 195 nm to 260 nm were recorded at 25 degrees Celsius, 75 degrees Celsius, 95 degrees Celsius and cooling back to 25 degrees Celsius. Thermal denaturation was monitored at 220 nm or 226 nm from 25 degrees Celsius to 95 degrees Celsius. Near-UV wavelength scan from 240 nm to 320 nm and tryptophan fluorescence emission were recorded in the absence and presence of 5M guanidinium chloride (GuHCl). Chemical denaturation in GuHCl was monitored by both tryptophan fluorescence and near-UV CD signal at 285 nm. The concentration of the GuHCl stock solution was measured with a refractometer (Spectronic Instruments, Inc). Far-UV CD experiments were performed on an AVIV model 420 CD spectrometer (Aviv Biomedical, Inc). Near-UV CD and tryptophan fluorescence experiments were performed on a Jasco J-1500 CD spectrometer (Jasco, Inc). Protein concentrations were determined by 280 nm absorbance with a NanoDrop™spectrophotometer (ThermoScientific, Inc). Melting temperatures were estimated by smoothing the sparse data with a Savitsky-Golay filter of order 3 and approximating the smoothed data with a cubic spline to compute derivatives. Reported Tm values are the inflection points of the melting curves.

[3] = set-up: species or system E. coli
Description: as §1, §2

B1: BB1: SEQ ID NO 1; nonfunctional de novo β-barrel design, stable monomer (protein)
chain: MVDAAQYFPGTWEFRFRSSDGKEYRGTVEMQPRTPTEIEIRFKGQSSDGRPVEGRGSIEVRSPYEYRFEMQSSDGARWEGTLQVRSPDSVEVRFKSSDGREYSGEFRRQE
modifications: (1)..(1) optionally absent
**Q.** For B1, which SEC [1] is on record?
**A.** monomer

**Q.** And the “β CD spectrum” value [2]?
**A.** yes

**Q.** And the Thermal stability ([2]; CD)?
**A.** unchanged at 95 °C; also recorded: stable at 95 degree Celsius; also recorded: does not temperature denature

**Q.** What about the “Cooperative unfolding transition in guanidine” value ([2]; near UV CD signal and tryptophan fluorescence) of the same molecule?
**A.** 2.5 M

**Q.** What about the Solubility [3] of the same molecule?
**A.** yes
